Results on 67 variants are retold here after PMC12102759 (2025).

To fix the notation:
B1: AXIN1 peptide 237-252 (Axin-1), 16-mer library wild type / PP2A B56 (PPP2R5A B56 domain, residues 1-486) (parent complex)
chain 1: YLPTLNEDEEWKADQD
chain 2: not shown

In this experiment the parent is B1. Put plainly: proteomic peptide phage display deep mutational scan (ProP-PD DMS): M13 P8 16-mer library selected against immobilised GST-tagged bait for four days (rounds), NGS of the eluted pools per day and pseudo-replica; bait immobilised on MaxiSorp plates (10 µg), library pre-cleared on GST, 2 h binding at 4 °C, five washes; one round per day, days 1-4; value from days 2 and 3.
Turning to chain 1 D14G, the screen value is 0.00106 average fractional NGS count over selection days 2 and 3 (reads of this peptide / all reads for the bait, averaged over ….

Regarding chain 1 D14S, the screen value is 0.00823 average fractional NGS count over selection days 2 and 3 (reads of this peptide / all reads for the bait, averaged over ….

For chain 1 D14N, the screen value is 0.00275 average fractional NGS count over selection days 2 and 3 (reads of this peptide / all reads for the bait, averaged over ….

For chain 1 D14V, the screen value is 0.00647 average fractional NGS count over selection days 2 and 3 (reads of this peptide / all reads for the bait, averaged over ….

Take chain 1 D14Y: the screen value is 0.00582 average fractional NGS count over selection days 2 and 3 (reads of this peptide / all reads for the bait, averaged over ….

As for chain 1 D14T, the screen value was 0.00142 average fractional NGS count over selection days 2 and 3 (reads of this peptide / all reads for the bait, averaged over ….

Take chain 1 D14E: the screen value is 0.00475 average fractional NGS count over selection days 2 and 3 (reads of this peptide / all reads for the bait, averaged over ….

Regarding chain 1 D14A, the screen value is 0.00375 average fractional NGS count over selection days 2 and 3 (reads of this peptide / all reads for the bait, averaged over ….

On to chain 1 D14I, for which the screen value is 0.000947 average fractional NGS count over selection days 2 and 3 (reads of this peptide / all reads for the bait, averaged over ….

With chain 1 D14Q, the screen value was 0.00055 average fractional NGS count over selection days 2 and 3 (reads of this peptide / all reads for the bait, averaged over ….

Turning to chain 1 L5V, the screen value was 0.00197 average fractional NGS count over selection days 2 and 3 (reads of this peptide / all reads for the bait, averaged over ….

As for chain 1 L5W, the screen value was 0.000869 average fractional NGS count over selection days 2 and 3 (reads of this peptide / all reads for the bait, averaged over ….

On to chain 1 L5I, for which the screen value is 0.00162 average fractional NGS count over selection days 2 and 3 (reads of this peptide / all reads for the bait, averaged over ….

As to chain 1 E10T, the screen value is 0.00217 average fractional NGS count over selection days 2 and 3 (reads of this peptide / all reads for the bait, averaged over ….

In the case of chain 1 E10Y, the screen value is 0.00105 average fractional NGS count over selection days 2 and 3 (reads of this peptide / all reads for the bait, averaged over ….

For the variant chain 1 E10P, the screen value is 0.00206 average fractional NGS count over selection days 2 and 3 (reads of this peptide / all reads for the bait, averaged over ….

On to chain 1 E10V, for which the screen value was 0.0046 average fractional NGS count over selection days 2 and 3 (reads of this peptide / all reads for the bait, averaged over ….

For the variant chain 1 E10M, the screen value is 0.00109 average fractional NGS count over selection days 2 and 3 (reads of this peptide / all reads for the bait, averaged over ….

For the variant chain 1 E10R, the screen value is 0.000173 average fractional NGS count over selection days 2 and 3 (reads of this peptide / all reads for the bait, averaged over ….

Take chain 1 W11T: the screen value is 0.000334 average fractional NGS count over selection days 2 and 3 (reads of this peptide / all reads for the bait, averaged over ….

chain 1 W11R: the screen value is 0.000154 average fractional NGS count over selection days 2 and 3 (reads of this peptide / all reads for the bait, averaged over ….

Consider chain 1 W11H, for which the screen value is 0.000184 average fractional NGS count over selection days 2 and 3 (reads of this peptide / all reads for the bait, averaged over ….

For the variant chain 1 W11F, the screen value is 0.0013 average fractional NGS count over selection days 2 and 3 (reads of this peptide / all reads for the bait, averaged over ….

For chain 1 W11S, the screen value was 0.000194 average fractional NGS count over selection days 2 and 3 (reads of this peptide / all reads for the bait, averaged over ….

In the case of chain 1 W11L, the screen value was 0.000123 average fractional NGS count over selection days 2 and 3 (reads of this peptide / all reads for the bait, averaged over ….

With chain 1 N6T, the screen value was 0.00301 average fractional NGS count over selection days 2 and 3 (reads of this peptide / all reads for the bait, averaged over ….

Turning to chain 1 N6Q, the screen value was 0.00501 average fractional NGS count over selection days 2 and 3 (reads of this peptide / all reads for the bait, averaged over ….

With chain 1 N6P, the screen value is 0.0105 average fractional NGS count over selection days 2 and 3 (reads of this peptide / all reads for the bait, averaged over ….

As to chain 1 N6W, the screen value is 0.000792 average fractional NGS count over selection days 2 and 3 (reads of this peptide / all reads for the bait, averaged over ….

Turning to chain 1 N6A, the screen value is 0.00273 average fractional NGS count over selection days 2 and 3 (reads of this peptide / all reads for the bait, averaged over ….

For the variant chain 1 N6Y, the screen value is 0.000368 average fractional NGS count over selection days 2 and 3 (reads of this peptide / all reads for the bait, averaged over ….

For chain 1 N6F, the screen value was 0.000398 average fractional NGS count over selection days 2 and 3 (reads of this peptide / all reads for the bait, averaged over ….

For chain 1 N6S, the screen value was 0.0193 average fractional NGS count over selection days 2 and 3 (reads of this peptide / all reads for the bait, averaged over ….

Regarding chain 1 N6I, the screen value is 0.00196 average fractional NGS count over selection days 2 and 3 (reads of this peptide / all reads for the bait, averaged over ….

On to chain 1 N6L, for which the screen value is 0.00123 average fractional NGS count over selection days 2 and 3 (reads of this peptide / all reads for the bait, averaged over ….

In the case of chain 1 N6M, the screen value is 0.000248 average fractional NGS count over selection days 2 and 3 (reads of this peptide / all reads for the bait, averaged over ….

With chain 1 N6E, the screen value was 0.00107 average fractional NGS count over selection days 2 and 3 (reads of this peptide / all reads for the bait, averaged over ….

chain 1 Y1Q: the screen value was 0.000381 average fractional NGS count over selection days 2 and 3 (reads of this peptide / all reads for the bait, averaged over ….

Consider chain 1 Y1A, for which the screen value is 0.000622 average fractional NGS count over selection days 2 and 3 (reads of this peptide / all reads for the bait, averaged over ….

For the variant chain 1 Y1L, the screen value is 0.00157 average fractional NGS count over selection days 2 and 3 (reads of this peptide / all reads for the bait, averaged over ….

Regarding chain 1 Y1S, the screen value is 0.000305 average fractional NGS count over selection days 2 and 3 (reads of this peptide / all reads for the bait, averaged over ….

Consider chain 1 Y1W, for which the screen value was 0.000316 average fractional NGS count over selection days 2 and 3 (reads of this peptide / all reads for the bait, averaged over ….

Consider chain 1 T4A, for which the screen value is 0.000216 average fractional NGS count over selection days 2 and 3 (reads of this peptide / all reads for the bait, averaged over ….

On to chain 1 T4Q, for which the screen value is 0.00351 average fractional NGS count over selection days 2 and 3 (reads of this peptide / all reads for the bait, averaged over ….

Regarding chain 1 T4P, the screen value is 0.00197 average fractional NGS count over selection days 2 and 3 (reads of this peptide / all reads for the bait, averaged over ….

Turning to chain 1 T4S, the screen value is 0.000737 average fractional NGS count over selection days 2 and 3 (reads of this peptide / all reads for the bait, averaged over ….

As to chain 1 A13P, the screen value was 0.00194 average fractional NGS count over selection days 2 and 3 (reads of this peptide / all reads for the bait, averaged over ….

In the case of chain 1 A13R, the screen value was 0.000134 average fractional NGS count over selection days 2 and 3 (reads of this peptide / all reads for the bait, averaged over ….

With chain 1 A13H, the screen value was 0.00442 average fractional NGS count over selection days 2 and 3 (reads of this peptide / all reads for the bait, averaged over ….

As to chain 1 A13N, the screen value is 0.000152 average fractional NGS count over selection days 2 and 3 (reads of this peptide / all reads for the bait, averaged over ….

Consider chain 1 A13V, for which the screen value is 0.000342 average fractional NGS count over selection days 2 and 3 (reads of this peptide / all reads for the bait, averaged over ….

As to chain 1 A13L, the screen value was 0.000528 average fractional NGS count over selection days 2 and 3 (reads of this peptide / all reads for the bait, averaged over ….

As to chain 1 P3A, the screen value was 0.000353 average fractional NGS count over selection days 2 and 3 (reads of this peptide / all reads for the bait, averaged over ….

As to chain 1 P3T, the screen value is 0.000276 average fractional NGS count over selection days 2 and 3 (reads of this peptide / all reads for the bait, averaged over ….

Take chain 1 P3Q: the screen value was 0.000844 average fractional NGS count over selection days 2 and 3 (reads of this peptide / all reads for the bait, averaged over ….

In the case of chain 1 D8F, the screen value is 0.000675 average fractional NGS count over selection days 2 and 3 (reads of this peptide / all reads for the bait, averaged over ….

For chain 1 D8E, the screen value is 0.000771 average fractional NGS count over selection days 2 and 3 (reads of this peptide / all reads for the bait, averaged over ….

In the case of chain 1 D8A, the screen value was 0.000509 average fractional NGS count over selection days 2 and 3 (reads of this peptide / all reads for the bait, averaged over ….

For the variant chain 1 D8H, the screen value was 0.00852 average fractional NGS count over selection days 2 and 3 (reads of this peptide / all reads for the bait, averaged over ….

On to chain 1 D8R, for which the screen value is 0.000182 average fractional NGS count over selection days 2 and 3 (reads of this peptide / all reads for the bait, averaged over ….

Turning to chain 1 D8S, the screen value was 0.0116 average fractional NGS count over selection days 2 and 3 (reads of this peptide / all reads for the bait, averaged over ….

Consider chain 1 D8Y, for which the screen value is 0.00257 average fractional NGS count over selection days 2 and 3 (reads of this peptide / all reads for the bait, averaged over ….

On to chain 1 D8G, for which the screen value is 0.0025 average fractional NGS count over selection days 2 and 3 (reads of this peptide / all reads for the bait, averaged over ….

For the variant chain 1 Q15R, the screen value was 0.000634 average fractional NGS count over selection days 2 and 3 (reads of this peptide / all reads for the bait, averaged over ….

With chain 1 Q15A, the screen value is 0.00159 average fractional NGS count over selection days 2 and 3 (reads of this peptide / all reads for the bait, averaged over ….

Take chain 1 Q15G: the screen value was 0.00117 average fractional NGS count over selection days 2 and 3 (reads of this peptide / all reads for the bait, averaged over ….

Turning to chain 1 Q15V, the screen value was 0.000515 average fractional NGS count over selection days 2 and 3 (reads of this peptide / all reads for the bait, averaged over ….
